Measurements from US8551717B2, “Method for determining sumoylation” (Medizinische Hochschule Hannover, priority 2008, dated 2013).

How the values were obtained:
Assay type in all cases: cell-based
CDK4-U = target: T1, CDK4-U (Homo sapiens, UniProt P11802+P63279); test: Trans-SUMOylation by CDK4-U; set-up: key: (++), strong TransSUMOylation; (+), TransSUMOylation; (+/−) weak TransSUMOylation; (−) no detectable TransSUMOylation; details: protein 2 construct coexpressed with CDK4-U and EGFP-SUMO1 in HEK293; western blot; Table 1
T1 construct: expressed in transfected cells; host or cells: HEK293
T1 sequence (P11802+P63279 fused): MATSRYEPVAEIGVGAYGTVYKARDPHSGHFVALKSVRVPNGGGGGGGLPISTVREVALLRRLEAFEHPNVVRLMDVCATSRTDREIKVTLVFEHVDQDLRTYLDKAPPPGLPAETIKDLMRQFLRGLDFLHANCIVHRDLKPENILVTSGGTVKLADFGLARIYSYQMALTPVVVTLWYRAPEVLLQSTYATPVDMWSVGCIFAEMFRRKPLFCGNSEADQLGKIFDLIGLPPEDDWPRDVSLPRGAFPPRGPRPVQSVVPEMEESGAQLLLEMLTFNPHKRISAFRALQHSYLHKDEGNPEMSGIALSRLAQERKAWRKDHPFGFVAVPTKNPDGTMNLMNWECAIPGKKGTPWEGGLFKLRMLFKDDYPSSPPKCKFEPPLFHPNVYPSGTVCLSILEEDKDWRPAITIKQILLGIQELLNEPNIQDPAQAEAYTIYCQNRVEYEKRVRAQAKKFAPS
From the text: (§1) To identify new SUMOylation substrates and to study the function of SUMOylation the Ubc9/substrate dimerisation-dependent SUMOylation system (USDDS) was developed which consists of fusions of the SUMOylation substrate and of the SUMO-conjugating enzyme Ubc9 to the chemically activatable heterodimerisation domains FKBP and FRB, respectively, as shown in FIG. 2. When the substrate protein fused to FKBP is coexpressed with Ubc9-FRB, treatment of HEK293 cells with the rapamycin-related dimerizer AP21967 induces SUMOylation of the substrate protein fused to FKBP at its specific SUMOylation site. […] Dependent on an EcoRl site in the coding sequence, seven C-terminal amino acids of the human STAT1a in the STAT1-FKBP/FRB fusion proteins are missing. For the SUMOylation analysis HEK293 (human embryonic kidney cells) cells have been used. HEK293 cells were cultured in Dulbecco's modified Eagle's medium with high glucose, complemented with 10% fetal calf serum, 2 mM L-glutamine, 100 U/ml penicillin and […] streptomycin. […]
(§2) As shown above, the SUMOylation of a protein of interest can be induced by the heterodimerisation with a binding protein fused to Ubc9. […] Therefore the protein pairs were coexpressed with EGFP-SUMO1 in HEK293 cells and after 24h the transfectants were lysed and the protein extracts were analyzed in western blots. […]

U-CDC37 = target: T2, U-CDC37 (Homo sapiens, UniProt P63279+Q16543); test: Trans-SUMOylation by U-CDC37; set-up: key: (++), strong TransSUMOylation; (+), TransSUMOylation; (+/−) weak TransSUMOylation; (−) no detectable TransSUMOylation; details: protein 2 construct coexpressed with U-CDC37 and EGFP-SUMO1 in HEK293; western blot; Table 2
T2 construct: expressed in transfected cells; host or cells: HEK293
T2 sequence (P63279+Q16543 fused): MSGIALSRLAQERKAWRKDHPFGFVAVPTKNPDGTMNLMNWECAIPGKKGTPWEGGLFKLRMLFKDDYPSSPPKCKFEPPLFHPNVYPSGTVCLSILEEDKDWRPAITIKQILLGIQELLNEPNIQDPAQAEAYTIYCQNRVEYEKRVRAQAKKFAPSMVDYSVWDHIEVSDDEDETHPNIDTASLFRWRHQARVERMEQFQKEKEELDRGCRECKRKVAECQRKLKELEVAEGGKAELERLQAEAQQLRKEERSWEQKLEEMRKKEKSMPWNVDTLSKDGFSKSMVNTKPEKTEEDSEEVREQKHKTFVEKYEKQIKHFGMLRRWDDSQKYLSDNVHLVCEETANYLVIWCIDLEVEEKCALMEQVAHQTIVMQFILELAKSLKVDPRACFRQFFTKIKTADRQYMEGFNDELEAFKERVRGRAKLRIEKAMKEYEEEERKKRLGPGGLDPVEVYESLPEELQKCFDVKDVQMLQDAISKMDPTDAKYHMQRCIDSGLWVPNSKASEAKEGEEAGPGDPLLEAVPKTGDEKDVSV
From the text: as §1, §2

CRSP9-U = target: T3, CRSP9-U (Homo sapiens, UniProt O43513+P63279); test: Trans-SUMOylation by CRSP9-U; set-up: key: (++), strong TransSUMOylation; (+), TransSUMOylation; (+/−) weak TransSUMOylation; (−) no detectable TransSUMOylation; details: protein 2 construct coexpressed with CRSP9-U and EGFP-SUMO1 in HEK293; western blot; Table 2
T3 construct: Ubc9 (fusion partner); expressed in transfected cells; host or cells: HEK293
T3 sequence (O43513+P63279 fused): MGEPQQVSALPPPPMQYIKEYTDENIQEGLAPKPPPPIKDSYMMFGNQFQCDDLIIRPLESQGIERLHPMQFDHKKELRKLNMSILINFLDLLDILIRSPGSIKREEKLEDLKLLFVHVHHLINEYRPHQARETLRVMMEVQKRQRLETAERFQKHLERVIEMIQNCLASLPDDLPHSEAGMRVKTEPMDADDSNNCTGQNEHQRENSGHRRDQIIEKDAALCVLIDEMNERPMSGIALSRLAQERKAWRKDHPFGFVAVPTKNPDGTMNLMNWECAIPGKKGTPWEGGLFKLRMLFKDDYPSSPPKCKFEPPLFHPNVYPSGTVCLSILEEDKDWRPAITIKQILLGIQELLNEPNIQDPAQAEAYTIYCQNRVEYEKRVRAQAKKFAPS
From the text: as §1, §2

U-ERK2 = target: T4, U-ERK2 (Homo sapiens, UniProt P28482+P63279); test: Trans-SUMOylation by U-ERK2; details: protein 2 construct coexpressed with U-ERK2 and EGFP-SUMO1 in HEK293; western blot; Table 2
T4 construct: expressed in transfected cells; host or cells: HEK293
T4 sequence (P63279+P28482 fused): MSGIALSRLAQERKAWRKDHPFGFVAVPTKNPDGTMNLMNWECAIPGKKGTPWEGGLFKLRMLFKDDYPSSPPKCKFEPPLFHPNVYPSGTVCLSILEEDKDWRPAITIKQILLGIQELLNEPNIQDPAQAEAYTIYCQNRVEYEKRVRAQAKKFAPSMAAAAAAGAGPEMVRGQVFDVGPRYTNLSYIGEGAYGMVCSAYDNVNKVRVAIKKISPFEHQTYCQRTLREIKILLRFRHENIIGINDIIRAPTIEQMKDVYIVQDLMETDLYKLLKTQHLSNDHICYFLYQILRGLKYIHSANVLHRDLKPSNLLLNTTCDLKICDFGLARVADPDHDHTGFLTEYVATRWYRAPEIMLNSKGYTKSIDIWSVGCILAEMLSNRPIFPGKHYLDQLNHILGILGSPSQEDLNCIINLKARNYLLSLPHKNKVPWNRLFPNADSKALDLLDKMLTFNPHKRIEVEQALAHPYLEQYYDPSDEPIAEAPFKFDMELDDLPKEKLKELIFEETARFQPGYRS

U-MK5 = target: T5, U-MK5 (Homo sapiens, UniProt P63279+Q8IW41); test: Trans-SUMOylation by U-MK5; set-up: key: (++), strong TransSUMOylation; (+), TransSUMOylation; (+/−) weak TransSUMOylation; (−) no detectable TransSUMOylation; details: protein 2 construct coexpressed with U-MK5 and EGFP-SUMO1 in HEK293; western blot; Table 2
T5 construct: expressed in transfected cells; host or cells: HEK293
T5 sequence (P63279+Q8IW41 fused): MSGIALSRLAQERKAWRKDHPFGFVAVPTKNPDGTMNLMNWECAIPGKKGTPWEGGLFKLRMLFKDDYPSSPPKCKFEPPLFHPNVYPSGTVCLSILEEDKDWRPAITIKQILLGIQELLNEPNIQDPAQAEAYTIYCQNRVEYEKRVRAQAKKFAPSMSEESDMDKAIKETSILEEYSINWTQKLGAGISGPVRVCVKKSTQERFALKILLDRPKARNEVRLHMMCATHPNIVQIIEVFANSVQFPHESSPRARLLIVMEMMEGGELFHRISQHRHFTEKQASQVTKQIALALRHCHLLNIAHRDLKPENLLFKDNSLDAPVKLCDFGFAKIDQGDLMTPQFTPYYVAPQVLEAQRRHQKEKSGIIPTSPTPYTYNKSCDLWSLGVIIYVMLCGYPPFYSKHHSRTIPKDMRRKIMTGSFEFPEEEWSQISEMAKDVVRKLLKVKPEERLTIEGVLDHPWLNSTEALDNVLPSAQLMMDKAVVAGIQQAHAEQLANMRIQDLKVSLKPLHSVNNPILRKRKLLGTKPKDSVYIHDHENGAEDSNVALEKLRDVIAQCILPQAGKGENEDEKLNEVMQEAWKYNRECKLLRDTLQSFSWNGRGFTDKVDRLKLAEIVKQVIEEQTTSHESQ
From the text: To identify new SUMOylation substrates and to study the function of SUMOylation the Ubc9/substrate dimerisation-dependent SUMOylation system (USDDS) was developed which consists of fusions of the SUMOylation substrate and of the SUMO-conjugating enzyme Ubc9 to the chemically activatable heterodimerisation domains FKBP and FRB, respectively, as shown in FIG. 2. When the substrate protein fused to FKBP is coexpressed with Ubc9-FRB, treatment of HEK293 cells with the rapamycin-related dimerizer AP21967 induces SUMOylation of the substrate protein fused to FKBP at its specific SUMOylation site. […] Dependent on an EcoRl site in the coding sequence, seven C-terminal amino acids of the human STAT1a in the STAT1-FKBP/FRB fusion proteins are missing. For the SUMOylation analysis HEK293 (human embryonic kidney cells) cells have been used. HEK293 cells were cultured in Dulbecco's modified Eagle's medium with high glucose, complemented with 10% fetal calf serum, 2 mM L-glutamine, 100 U/ml penicillin and […] streptomycin. We performed transfection of HEK293 cells using the polyethylenimine transfection reagent. HEK293 cells of a fresh confluent 10 cm plate were transferred on a 12-well plate. After 12-24 h incubation about 70% cell confluence is reached. For each well 45 μl of serum/antibiotic free DMEM medium is mixed with 750 ng of the transfection-purity expression vector DNA (all together 47 μl) and vortexed. Then, 3 μl of vortexed polyethylenimin stock solution (1 mg/ml) is added and the mixture is vortexed. After incubation at room temperature for 10 min 450 μl fresh DMEM with antibiotics is added to the mixture and vortexed. The medium on the cells was then completely removed and immediately, the 500 μl transfection mix was added carefully to each well. The 12 well plate was rocked to ensure a proper distribution of the DNA/transfection reagent complex. After an incubation of the cells for 24 h at a 37° C. in a humidified CO2-incubator (5%) the cells were lysed in 150 μl Laemmli (2×) gel loading buffer (160 mM Tris-HCL, pH 6.8, 4% (w/v) sodium dodecyl sulphate (SDS), 20% (v/v) glycerol, 0.5% β-mercaptoethanol (v/v), 0.008% (w/v) bromophenol blue) and incubated for 10 min at 95° C. For western blot analysis the proteins were separated by SDS-PAGE, blotted on a PVDF membrane and developed with specific primary antibodies (α-Ubc9 (H81, Santa Cruz), α-pY701-STAT1 (Tyr701, Cell Signaling), α-STAT1 (Cell Signaling), α-p53 (1C12, Cell Signaling), α-SUMO1 (Cell Signaling), a horseradish peroxidase (HRP)-conjugated secondary antibody (different companies), the ECL+ (Amersham) or Immobilon™ Western (Millipore) and the LAS-3000 imaging system (Fuji).
As shown above, the SUMOylation of a protein of interest can be induced by the heterodimerisation with a binding protein fused to Ubc9. To find out if Trans-SUMOylation is useful for the characterisation of common protein interactions, protein binding pairs well known from the literature or found in two hybrid screens. […] Therefore the protein pairs were coexpressed with EGFP-SUMO1 in HEK293 cells and after 24h the transfectants were lysed and the protein extracts were analyzed in western blots.
Protein-protein interactions described in the cited references were tested for Trans-SUMOylation. Each specific protein-protein interaction was tested by coexpression of different combinations of protein 1 fused to Ubc9 (U) with protein 2 mostly fused two a tag (HA, FLAG, Myc, GST, ST). (++), strong TransSUMOylation; (+), TransSUMOylation; (+/−) weak TransSUMOylation; (−) no detectable TransSUMOylation; (MEKK1ca) the activated MAP3 kinase MEKK1, that can enhance protein SUMOylation, was coexpressed.
Protein-protein interaction of each pair of protein 1/protein 2 was tested by coexpression of different combinations of a protein 1 fused to Ubc9 (U) with protein 2 mostly fused two a Tag (HA, FLAG, GST, ST). […]

ERK2-U = target: T6, ERK2-U (Homo sapiens, UniProt P28482+P63279); test: Trans-SUMOylation by ERK2-U; details: protein 2 construct coexpressed with ERK2-U and EGFP-SUMO1 in HEK293; western blot; Table 2
T6 construct: expressed in transfected cells; host or cells: HEK293
T6 sequence (P28482+P63279 fused): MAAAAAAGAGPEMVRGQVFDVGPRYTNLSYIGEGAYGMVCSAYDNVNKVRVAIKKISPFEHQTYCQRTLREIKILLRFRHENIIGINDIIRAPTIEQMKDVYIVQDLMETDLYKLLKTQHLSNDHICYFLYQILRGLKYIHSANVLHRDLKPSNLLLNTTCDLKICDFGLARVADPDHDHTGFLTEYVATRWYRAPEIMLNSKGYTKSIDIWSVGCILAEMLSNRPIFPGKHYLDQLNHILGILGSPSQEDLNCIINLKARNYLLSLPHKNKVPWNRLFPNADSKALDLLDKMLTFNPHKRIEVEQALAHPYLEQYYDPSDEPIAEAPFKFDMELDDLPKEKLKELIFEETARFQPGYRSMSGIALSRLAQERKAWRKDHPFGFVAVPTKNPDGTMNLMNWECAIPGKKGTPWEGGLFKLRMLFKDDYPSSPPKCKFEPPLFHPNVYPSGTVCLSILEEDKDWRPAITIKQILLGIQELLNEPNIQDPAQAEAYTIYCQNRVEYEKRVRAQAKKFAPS

MEK2-U = target: T7, MEK2-U (Homo sapiens, UniProt P36507+P63279); test: Trans-SUMOylation by MEK2-U; set-up: key: (++), strong TransSUMOylation; (+), TransSUMOylation; (+/−) weak TransSUMOylation; (−) no detectable TransSUMOylation; details: protein 2 construct coexpressed with MEK2-U and EGFP-SUMO1 in HEK293; western blot; Table 1
T7 construct: expressed in transfected cells; host or cells: HEK293
From the text: as §1, §2

U-p38α = target: T8, U-p38α (Homo sapiens, UniProt P63279+Q16539); test: Trans-SUMOylation by U-p38α; details: protein 2 construct coexpressed with U-p38α and EGFP-SUMO1 in HEK293; western blot; Table 1
T8 construct: expressed in transfected cells; host or cells: HEK293
T8 sequence (P63279+Q16539 fused): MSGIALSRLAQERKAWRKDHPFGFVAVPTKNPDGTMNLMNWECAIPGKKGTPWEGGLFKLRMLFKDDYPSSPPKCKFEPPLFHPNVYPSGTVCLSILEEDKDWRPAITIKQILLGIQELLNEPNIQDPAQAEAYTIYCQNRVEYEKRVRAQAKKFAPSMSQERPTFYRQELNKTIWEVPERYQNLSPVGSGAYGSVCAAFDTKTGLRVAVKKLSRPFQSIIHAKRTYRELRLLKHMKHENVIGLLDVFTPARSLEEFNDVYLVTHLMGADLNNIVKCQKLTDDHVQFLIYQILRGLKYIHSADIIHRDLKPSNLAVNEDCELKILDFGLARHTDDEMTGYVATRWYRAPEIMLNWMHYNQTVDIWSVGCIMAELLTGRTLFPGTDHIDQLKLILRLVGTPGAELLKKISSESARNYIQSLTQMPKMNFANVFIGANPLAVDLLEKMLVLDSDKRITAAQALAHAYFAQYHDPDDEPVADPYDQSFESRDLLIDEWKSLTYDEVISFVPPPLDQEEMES

U-MEK2 = target: T9, U-MEK2 (Homo sapiens, UniProt P36507+P63279); test: Trans-SUMOylation by U-MEK2; set-up: key: (++), strong TransSUMOylation; (+), TransSUMOylation; (+/−) weak TransSUMOylation; (−) no detectable TransSUMOylation; details: protein 2 construct coexpressed with U-MEK2 and EGFP-SUMO1 in HEK293; western blot; Table 1
T9 construct: expressed in transfected cells; host or cells: HEK293
From the text: as §1, §2

MK2-U = target: T10, MK2-U (Homo sapiens, UniProt P49137+P63279); test: Trans-SUMOylation by MK2-U; details: protein 2 construct coexpressed with MK2-U and EGFP-SUMO1 in HEK293; western blot; Table 2
T10 construct: expressed in transfected cells; host or cells: HEK293
T10 sequence (P49137+P63279 fused): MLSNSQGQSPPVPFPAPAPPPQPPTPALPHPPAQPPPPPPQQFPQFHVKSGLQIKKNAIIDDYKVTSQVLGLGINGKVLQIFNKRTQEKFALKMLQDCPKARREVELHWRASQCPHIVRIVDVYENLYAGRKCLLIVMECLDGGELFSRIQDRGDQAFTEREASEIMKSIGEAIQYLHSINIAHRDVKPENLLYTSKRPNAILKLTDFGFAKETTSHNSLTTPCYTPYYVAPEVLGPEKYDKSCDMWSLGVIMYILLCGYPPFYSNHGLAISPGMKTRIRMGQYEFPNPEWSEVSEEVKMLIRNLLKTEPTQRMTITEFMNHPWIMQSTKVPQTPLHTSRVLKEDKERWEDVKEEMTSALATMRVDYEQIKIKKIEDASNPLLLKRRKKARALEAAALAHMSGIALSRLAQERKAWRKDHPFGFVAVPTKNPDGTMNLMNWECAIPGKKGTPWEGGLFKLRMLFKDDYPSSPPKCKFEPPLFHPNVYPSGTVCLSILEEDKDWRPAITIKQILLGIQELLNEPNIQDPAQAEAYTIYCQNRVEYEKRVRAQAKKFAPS

U-TAF10 = target: T11, U-TAF10 (Homo sapiens, UniProt P63279+Q12962); test: Trans-SUMOylation by U-TAF10; set-up: key: (++), strong TransSUMOylation; (+), TransSUMOylation; (+/−) weak TransSUMOylation; (−) no detectable TransSUMOylation; details: protein 2 construct coexpressed with U-TAF10 and EGFP-SUMO1 in HEK293; western blot; Table 2
T11 construct: Ubc9 (fusion partner); expressed in transfected cells; host or cells: HEK293
T11 sequence (P63279+Q12962 fused): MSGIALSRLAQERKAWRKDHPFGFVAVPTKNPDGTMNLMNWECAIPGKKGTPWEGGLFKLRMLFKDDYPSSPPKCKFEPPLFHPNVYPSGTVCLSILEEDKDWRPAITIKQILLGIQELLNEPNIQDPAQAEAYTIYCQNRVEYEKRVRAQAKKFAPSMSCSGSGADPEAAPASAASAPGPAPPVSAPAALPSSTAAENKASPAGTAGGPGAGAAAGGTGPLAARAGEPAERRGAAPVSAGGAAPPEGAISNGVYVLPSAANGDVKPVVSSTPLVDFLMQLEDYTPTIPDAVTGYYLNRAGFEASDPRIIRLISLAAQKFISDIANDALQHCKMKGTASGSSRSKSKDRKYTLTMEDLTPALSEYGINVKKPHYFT
From the text: as §1, §2

**Q.** Which Trans-SUMOylation (CDK4-U) does the source give for GST-CDC37: CDC37 fused to GST tag here?
**A.** +

**Q.** And the Trans-SUMOylation (U-CDC37)?
**A.** +

**Q.** With GST-CRSP9: CRSP9 fused to GST tag as the substance, how does the Trans-SUMOylation (CRSP9-U) read?
**A.** −

**Q.** For GST-ERK2: ERK2 fused to GST tag, which Trans-SUMOylation (U-ERK2) is on record?
**A.** −

**Q.** And the Trans-SUMOylation (U-MK5)?
**A.** −

**Q.** What about the Trans-SUMOylation (ERK2-U) of the same substance?
**A.** −

**Q.** What about the Trans-SUMOylation (MEK2-U) of the same substance?
**A.** +

**Q.** What about the Trans-SUMOylation (U-p38α) of the same substance?
**A.** −

**Q.** And the Trans-SUMOylation (U-MEK2)?
**A.** +

**Q.** How did the Trans-SUMOylation (MK2-U) turn out when GST-TAF10: TAF10 fused to GST tag was run?
**A.** −

**Q.** And the Trans-SUMOylation (U-TAF10)?
**A.** (+/−)
